Experimental data from patent publication US20030171276A1, “Preventives and remedies for chronic hepatitis” (priority 1999, published 2003).

B1: bLF: bovine lactoferrin protein (SERVA Electrophoresis GmbH) (protein, UniProt P24627 20-708, looked up)
Lactotransferrin: APRKNVRWCTISQPEWFKCRRWQWRMKKLGAPSITCVRRAFALECIRAIAEKKADAVTLDGGMVFEAGRDPYKLRPVAAEIYGTKESPQTHYYAVAVVKKGSNFQLDQLQGRKSCHTGLGRSAGWIIPMGILRPYLSWTESLEPLQGAVAKFFSASCVPCIDRQAYPNLCQLCKGEGENQCACSSREPYFGYSGAFKCLQDGAGDVAFVKETTVFENLPEKADRDQYELLCLNNSRAPVDAFKECHLAQVPSHAVVARSVDGKEDLIWKLLSKAQEKFGKNKSRSFQLFGSPPGQRDLLFKDSALGFLRIPSKVDSALYLGSRYLTTLKNLRETAEEVKARYTRVVWCAVGPEEQKKCQQWSQQSGQNVTCATASTTDDCIVLVLKGEADALNLDGGYIYTAGKCGLVPVLAENRKSSKHSSLDCVLRPTEGYLAVAVVKKANEGLTWNSLKDKKSCHTAVDRTAGWNIPMGLIVNQTGSCAFDEFFSQSCAPGADPKSRLCALCAGDDQGLDKCVPNSKEKYYGYTGAFRCLAEDVGDVAFVKNDTVWENTNGESTADWAKNLNREDFRLLCLDGTRKPVTEAQSCHLAVAPNHAVVSRSDRAAHVKQVLLHQQALFGKNGKNCPDKFCLFKSETKNLLFNDNTECLAKLGGRPTYEEYLGTEYVTAIANLKKCSTSPLLEACAFLTR
B2: lactoferrin: lactoferrin contained in breast milk (protein, UniProt P02788 20-710, looked up)
Lactotransferrin: GRRRSVQWCAVSQPEATKCFQWQRNMRKVRGPPVSCIKRDSPIQCIQAIAENRADAVTLDGGFIYEAGLAPYKLRPVAAEVYGTERQPRTHYYAVAVVKKGGSFQLNELQGLKSCHTGLRRTAGWNVPIGTLRPFLNWTGPPEPIEAAVARFFSASCVPGADKGQFPNLCRLCAGTGENKCAFSSQEPYFSYSGAFKCLRDGAGDVAFIRESTVFEDLSDEAERDEYELLCPDNTRKPVDKFKDCHLARVPSHAVVARSVNGKEDAIWNLLRQAQEKFGKDKSPKFQLFGSPSGQKDLLFKDSAIGFSRVPPRIDSGLYLGSGYFTAIQNLRKSEEEVAARRARVVWCAVGEQELRKCNQWSGLSEGSVTCSSASTTEDCIALVLKGEADAMSLDGGYVYTAGKCGLVPVLAENYKSQQSSDPDPNCVDRPVEGYLAVAVVRRSDTSLTWNSVKGKKSCHTAVDRTAGWNIPMGLLFNQTGSCKFDEYFSQSCAPGSDPRSNLCALCIGDEQGENKCVPNSNERYYGYTGAFRCLAENAGDVAFVKDVTVLQNTDGNNNEAWAKDLKLADFALLCLDGKRKPVTEARSCHLAMAPNHAVVSRMDKVERLKQVLLHQQAKFGRNGSDCPDKFCLFQSETKNLLFNDNTECLARLHGKTTYEKYLGPQYVAGITNLKKCSTSPLLEACEFLRK

Assays:
[1] = test system: recombinant E2 protein binding to CD81 expressed in Jurkat cells; assay: Inhibition of binding of recombinant E2 protein to Jurkat cells (FACScan); type: cell-based, HCV; details: 1 μg recombinant E2 protein preincubated with 10 μL of 1 mg/mL solution, room temperature 1 hour; FIG. 14
Description: An oligopeptide capable of binding to HCV E2 antigen is reacted with the HCV E2 antigen to study whether or not binding of CD81 expressed in Jurkat cells purchased from DAINIPPON PHARMACEUTICAL CO., LTD. to the HCV E2 antigen is inhibited. By the study, whether or not the selected oligopeptide inhibits adhesion of the HCV E2 antigen to CD81-positive cells can be estimated. The inhibitory activity for adhesion of CD81 to the IICV E2 antigen was assayed in accordance with the literature. The concrete description will be given hereinbelow.
The Jurkat cells were prepared in the same manner as in item (1), and suspended in WB so as to have a concentration of 4×10^6 cells/mL, to give a Jurkat cell suspension. […]
Hereinafter, in the same manner as in the item (1) above, the resulting product was reacted with an FITC-labeled anti-mouse IgG1 antibody, and thereafter the reaction mixture was suspended in 0.2 mL of a 10% neutral buffered formalin solution. As to the resulting product, E2 protein bound to Jurkat cells was analyzed by using FACScan.
One microgram of the recombinant E2 protein, and 10 μL of the TAPA148, bLF or bLF443 solution obtained in item (4) above were added to a 6 mm rounded-bottom tube and, and WB was then added thereto, to give 50 μL of a mixture. […] As to the resulting suspension, E2 protein bound to Jurkat cells was analyzed by using FACScan.

HCV = details: cited from earlier work

| Molecule | inhibitory action of binding of E2 protein to Jurkat cells [1] | amount of virus in blood (HCV) | binding to HCV (HCV; lactoferrin contained in breast milk) |
| --- | --- | --- | --- |
| B1 | inhibitory action of binding of the E2 protein | – | – |
| B2 | – | reduces an amount of virus in blood | binds to HCV |
